From IntAct's records for PubMed 23518348

B1: Androgen receptor (Homo sapiens), P10275 (parent)
chain: MEVQLGLGRVYPRPPSKTYRGAFQNLFQSVREVIQNPGPRHPEAASAAPPGASLLLLQQQQQQQQQQQQQQQQQQQQQQQETSPRQQQQQQGEDGSPQAHRRGPTGYLVLDEEQQPSQPQSALECHPERGCVPEPGAAVAASKGLPQQLPAPPDEDDSAAPSTLSLLGPTFPGLSSCSADLKDILSEASTMQLLQQQQQEAVSEGSSSGRAREASGAPTSSKDNYLGGTSTISDNAKELCKAVSVSMGLGVEALEHLSPGEQLRGDCMYAPLLGVPPAVRPTPCAPLAECKGSLLDDSAGKSTEDTAEYSPFKGGYTKGLEGESLGCSGSAAAGSSGTLELPSTLSLYKSGALDEAAAYQSRDYYNFPLALAGPPPPPPPPHPHARIKLENPLDYGSAWAAAAAQCRYGDLASLHGAGAAGPGSGSPSAAASSSWHTLFTAEEGQLYGPCGGGGGGGGGGGGGGGGGGGGGGGEAGAVAPYGYTRPPQGLAGQESDFTAPDVWYPGGMVSRVPYPSPTCVKSEMGPWMDSYSGPYGDMRLETARDHVLPIDYYFPPQKTCLICGDEASGCHYGALTCGSCKVFFKRAAEGKQKYLCASRNDCTIDKFRRKNCPSCRLRKCYEAGMTLGARKLKKLGNLKLQEEGEASSTTSPTEETTQKLTVSHIEGYECQPIFLNVLEAIEPGVVCAGHDNNQPDSFAALLSSLNELGERQLVHVVKWAKALPGFRNLHVDDQMAVIQYSWMGLMVFAMGWRSFTNVNSRMLYFAPDLVFNEYRMHKSRMYSQCVRMRHLSQEFGWLQITPQEFLCMKALLLFSIIPVDGLKNQKFFDELRMNYIKELDRIIACKRKNPTSCSRRFYQLTKLLDSVQPIARELHQFTFDLLIKSHMVSVDFPEMMAEIISVQVPKILSGKVKPIYFHTQ
partner: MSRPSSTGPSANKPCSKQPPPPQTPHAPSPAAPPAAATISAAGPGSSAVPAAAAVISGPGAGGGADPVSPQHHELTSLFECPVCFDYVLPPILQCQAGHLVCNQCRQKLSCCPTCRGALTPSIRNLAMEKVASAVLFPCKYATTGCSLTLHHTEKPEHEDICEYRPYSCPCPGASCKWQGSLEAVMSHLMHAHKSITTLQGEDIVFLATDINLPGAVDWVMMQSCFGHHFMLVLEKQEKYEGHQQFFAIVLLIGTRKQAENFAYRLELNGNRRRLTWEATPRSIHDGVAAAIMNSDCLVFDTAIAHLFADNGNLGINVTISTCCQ

Variants of: B1
Details: with siah2_mouse Siah2, Q06986

Variant	effect of a mutation on the interaction
V716M	decreasing interaction
Q799E	decreasing interaction
T878A	decreasing interaction
H875Y	decreasing interaction
R727L	decreasing interaction
V731M	decreasing interaction
F755L	decreasing interaction
L702H	decreasing interaction
